Experimental data as given in US10973880B2, “Compositions and methods for treating pulmonary hypertension” (Acceleron Pharma Inc., priority 2016, dated 2021).

T1: activin A (ActA) (Homo sapiens, UniProt P08476)
T1 sequence (P08476 311-426): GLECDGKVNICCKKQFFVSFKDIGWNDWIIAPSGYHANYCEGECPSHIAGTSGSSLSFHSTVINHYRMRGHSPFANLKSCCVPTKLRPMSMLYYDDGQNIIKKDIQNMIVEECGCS

T2: GDF11 (Homo sapiens, UniProt O95390)
T2 sequence (O95390 299-407): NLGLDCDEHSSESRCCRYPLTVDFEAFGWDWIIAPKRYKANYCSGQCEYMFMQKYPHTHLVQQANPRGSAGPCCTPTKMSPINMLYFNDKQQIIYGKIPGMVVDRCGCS

T3: GDF8 (Homo sapiens, UniProt O14793)
T3 sequence (O14793 267-375): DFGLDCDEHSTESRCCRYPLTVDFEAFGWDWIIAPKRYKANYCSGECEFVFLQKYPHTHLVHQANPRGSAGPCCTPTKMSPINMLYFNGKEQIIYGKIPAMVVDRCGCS

B1: +15tail: soluble ActRIIB-Fc variant labelled +15tail (WO2006/012627) (protein)
chain: SGRGEAETRECIYYNANWELERTNQSGLERCEGEQDKRLHCYASWANSSGTIELVKKGCWLDDFNCYDRQECVATEENPQVYFCCCEGNFCNERFTHLPEAGGPEVTYEPPPTAPT
modifications: left off: a dimerising Fc or GST
B2: ActRIIB(K74A 20-134)-hFc: ActRIIB(20-134)-hFc variant with K74A mutation (protein)
chain: GRGEAETRECIYYNANWELERTNQSGLERCEGEQDKRLHCYASWRNSSGTIELVAKGCWLDDFNCYDRQECVATEENPQVYFCCCEGNFCNERFTHLPEAGGPEVTYEPPPTAPTGGGTHTCPPCPAPELLGGPSVFLFPPKPKDTLMISRTPEVTCVVVDVSHEDPEVKFNWYVDGVEVHNAKTKPREEQYNSTYRVVSVLTVLHQDWLNGKEYKCKVSNKALPVPIEKTISKAKGQPREPQVYTLPPSREEMTKNQVSLTCLVKGFYPSDIAVEWESNGQPENNYKTTPPVLDSDGSFFLYSKLTVDKSRWQQGNVFSCSVMHEALHNHYTQKSLSLSPGK
B3: D54A: soluble ActRIIB-Fc variant D54A (protein)
chain: SGRGEAETRECIYYNANWELERTNQSGLERCEGEQAKRLHCYASWANSSGTIELVKKGCWLDDFNCYDRQECVATEENPQVYFCCCEGNFCNERFTHLPEA
modifications: left off: a dimerising Fc or GST
B4: WT (64R): soluble ActRIIB-Fc, wild type with arginine at position 64 (WO2006/012627) (protein)
chain: SGRGEAETRECIYYNANWELERTNQSGLERCEGEQDKRLHCYASWRNSSGTIELVKKGCWLDDFNCYDRQECVATEENPQVYFCCCEGNFCNERFTHLPEA
modifications: left off: a dimerising Fc or GST
B5: D80I: soluble ActRIIB-Fc variant D80I (protein)
chain: SGRGEAETRECIYYNANWELERTNQSGLERCEGEQDKRLHCYASWANSSGTIELVKKGCWLIDFNCYDRQECVATEENPQVYFCCCEGNFCNERFTHLPEA
modifications: left off: a dimerising Fc or GST
B6: L79A: soluble ActRIIB-Fc variant L79A (protein)
chain: SGRGEAETRECIYYNANWELERTNQSGLERCEGEQDKRLHCYASWANSSGTIELVKKGCWADDFNCYDRQECVATEENPQVYFCCCEGNFCNERFTHLPEA
modifications: left off: a dimerising Fc or GST
B7: K74I: soluble ActRIIB-Fc variant K74I (protein)
chain: SGRGEAETRECIYYNANWELERTNQSGLERCEGEQDKRLHCYASWANSSGTIELVIKGCWLDDFNCYDRQECVATEENPQVYFCCCEGNFCNERFTHLPEA
modifications: left off: a dimerising Fc or GST
B8: K74A: soluble ActRIIB-Fc variant K74A (WO2006/012627 table) (protein)
chain: SGRGEAETRECIYYNANWELERTNQSGLERCEGEQDKRLHCYASWANSSGTIELVAKGCWLDDFNCYDRQECVATEENPQVYFCCCEGNFCNERFTHLPEA
modifications: left off: a dimerising Fc or GST
B9: K74Y: soluble ActRIIB-Fc variant K74Y (protein)
chain: SGRGEAETRECIYYNANWELERTNQSGLERCEGEQDKRLHCYASWANSSGTIELVYKGCWLDDFNCYDRQECVATEENPQVYFCCCEGNFCNERFTHLPEA
modifications: left off: a dimerising Fc or GST
B10: F82A: soluble ActRIIB-Fc variant F82A (protein)
chain: SGRGEAETRECIYYNANWELERTNQSGLERCEGEQDKRLHCYASWANSSGTIELVKKGCWLDDANCYDRQECVATEENPQVYFCCCEGNFCNERFTHLPEA
modifications: left off: a dimerising Fc or GST
B11: K55A: soluble ActRIIB-Fc variant K55A (protein)
chain: SGRGEAETRECIYYNANWELERTNQSGLERCEGEQDARLHCYASWANSSGTIELVKKGCWLDDFNCYDRQECVATEENPQVYFCCCEGNFCNERFTHLPEA
modifications: left off: a dimerising Fc or GST
B12: WT (64A): soluble ActRIIB-Fc, wild type with alanine at position 64 (WO2006/012627) (protein)
chain: SGRGEAETRECIYYNANWELERTNQSGLERCEGEQDKRLHCYASWANSSGTIELVKKGCWLDDFNCYDRQECVATEENPQVYFCCCEGNFCNERFTHLPEA
modifications: left off: a dimerising Fc or GST
B13: R40A: soluble ActRIIB-Fc variant R40A (protein)
chain: SGRGEAETRECIYYNANWELEATNQSGLERCEGEQDKRLHCYASWANSSGTIELVKKGCWLDDFNCYDRQECVATEENPQVYFCCCEGNFCNERFTHLPEA
modifications: left off: a dimerising Fc or GST
B14: K74F: soluble ActRIIB-Fc variant K74F (protein)
chain: SGRGEAETRECIYYNANWELERTNQSGLERCEGEQDKRLHCYASWANSSGTIELVFKGCWLDDFNCYDRQECVATEENPQVYFCCCEGNFCNERFTHLPEA
modifications: left off: a dimerising Fc or GST

Columns and labels:
[1] = tested on: rat model of pulmonary arterial hypertension (PAH), monocrotaline (MCT) induced; assay: monocrotaline rat model of pulmonary arterial hypertension; assay type: in vivo, Sprague Dawley rats
Procedure: The effects of an ActRIIA-mFc fusion protein (ActRIIA-mFc homodimer as described in Example 1), an ALK4-Fc-ActRIIB-Fc heterodimer (as described in Examples 12 and 13), and sildenafil (a phosphodiesterase-5 inhibitor approved for the treatment of PAH) were examined in a rat model of pulmonary arterial hypertension (PAH). In this model, Sprague Dawley rats received a […] injection of monocrotaline (MCT) to induce PAH 24 hours prior to start of therapy.
Rats were separated into different treatment groups (10 mice per group): 1) treatment with MCT (60 mg/kg administered i.p. as a single dose at day 1 of study) and Tris buffered saline (i.p. as 1 ml/kg, every three days) (vehicle treatment group), 2) treatment with an ActRIIA-mFc polypeptide (10 mg/kg administered i.p. every three days) and MCT (60 mg/kg administered i.p. as a single dose at day 1 of study), 3) treatment with an ALK4-Fc:ActRIIB-Fc heterodimer (10 mg/kg administered i.p. every three days) and MCT (60 mg/kg administered i.p. as a single dose at day 1 of study), 4) treatment with sildenafil (30 mg/kg administered orally twice daily) and MCT (60 mg/kg administered i.p. as a single dose at day 1 of study), and 5) control rats (Tris buffered saline administered i.p. as 1 ml/kg, every three days). Rats were treated for 28 days. Body weights were recorded prior to first dose on Day 1 and then weekly throughout the study.
On day 28, rats were anesthetized by an intraperitoneal injection of ketamine/xylazine (80/10 mg/kg). An incision was made in the neck, and a jugular vein was isolated and ligated anteriorly. A fluid-filled pressure catheter was introduced into the right jugular vein to measure pulmonary artery pressure (PAP). Another incision was made in the inguinal region, and femoral artery was isolated and ligated anteriorly. A Millar pressure catheter was introduced into a femoral artery to measure systolic arterial pressure, diastolic pressure, and heart rate. Mean arterial pressure and right PAP were monitored using the Notocord HEM (Croissy sur Seine, Frnace) v3.5 data capture system for approximately 5-10 minutes until stable measurements were obtained. During the measurements, rats were maintained at approximately 37° C. on a heating pad and body temperature was monitored throughout the procedure with a rectal temperature probe. At the conclusion of the procedure, rats were euthanized, and the hearts and lungs were removed. The entire heart was weighed. Next, the atria were removed and the left ventricle with septum (LV+S) was separated from the right ventricle (RV). The ventricles were weighed separately. Hypertrophy was assessed, in part, by calculating RV/LV+S. The lungs were also weighed.
Similar trends were observed on vessel muscularity based on histopathologic scoring. After staining tissue samples to detect αSMA/elastin, 100 pulmonary arterioles, between 10 μm and 50 μm in size, per animal were categorized as non-muscularized, partially muscularized, or completely muscularized. Pulmonary arterioles from vehicle treated rats were determined to be 62.3% completely muscularized, 36.4% partially muscularized, and 1.4% non-muscularized. […] Histopathological scoring of smooth muscle hypertrophy of pulmonary arterioles were also recorded as follows: 0 (normal), 1 (minimal), 2 (mild), 3 (moderate), or 4 (marked).

activin A (ActA) = biological target: T1, activin A (ActA); settings: reproduced from WO2006/012627; cited from earlier work
GDF11 = biological target: T2, GDF11; settings: reproduced from WO2006/012627; cited from earlier work
GDF8 = biological target: T3, GDF8; assay: Biacore assay, receptor captured with anti-hFc antibody; assay type: binding
Procedure: Binding of certain ActRIIB-Fc proteins and GDF traps to ligands was tested in a Biacore assay.
The ActRIIB-Fc variants or wild-type protein were captured onto the system using an anti-hFc antibody. Ligands were injected and flowed over the captured receptor proteins.

Row | Molecule | ActA binding relative to WT (activin A (ActA)) | GDF11 binding relative to WT (GDF11) | other results
1 | CCCc1nn(C)c2c(=O)[nH]c(-c3cc(S(=O)(=O)N4CCN(C)CC4)ccc3OCC)nc12 [sildenafil, reference compound] |  |  | smooth muscle hypertrophy of pulmonary arterioles, average histopathological score ([1]; 0 normal, 1 minimal, 2 mild, 3 moderate, 4 marked): 3 score; improvement in body weight ([1]; 28 days, compared to monocrotaline treated rats, proteins 10 mg/kg i.p. every three days, sildenafil 30 mg/kg orally twice daily): did not have any improvement
2 | B1 | (+++) (~5× increased binding) | (++++) (~10× increased binding) | Kd (GDF11): 19 nM
3 | B2 |  |  | Koff, GDF8 (GDF8): 2.03e-05 s⁻¹
4 | B3 | − (~1/2 WT binding) |  | 
5 | B4 |  | (+++) (~5× increased binding) | 
6 | B5 |  | −− (<1/5 WT binding) | 
7 | B6 | + (WT) |  | 
8 | B7 |  | −− (<1/5 WT binding) | 
9 | B8 | +++++ (~40× increased binding) | +++++ (~40× increased binding) | 
10 | B9 |  | −− (<1/5 WT binding) | 
11 | B10 | ++ (<2× increased binding) | − (~1/2 WT binding) | 
12 | B11 | ++ (<2× increased binding) |  | 
13 | B12 | (+) (WT) | (+) (WT) | 
14 | B13 | − (~1/2 WT binding) | − (~1/2 WT binding) | 
15 | B14 |  | −− (<1/5 WT binding) | 
